According to article PMC12480940:

How the values were obtained:
Assay in all cases: SPR; Biacore T200, 25 °C, pH 5.5 (177 mM phosphate, 85 mM NaCl, 0.005% TWEEN-20); FIX-HSA variants amine-coupled (200 RU) on CM5; soluble His-tagged hFcRn (15.6-2000.0 nM for HSAWT, 1.95-62.5 nM for HSAQMP) or mFcRn (7.8-8000.0 nM for HSAWT, 3.9-500 nM for HSAQMP) injected; 1:1 Langmuir model
PaduaKR-HSAQMP (human) = PaduaKR-HSAQMP (human) (UniProt P02768)
PaduaKA-HSAQMP (human) = PaduaKA-HSAQMP (human) (UniProt P02768)
FIXKR-HSAWT (human) = FIXKR-HSAWT (human) (UniProt P02768)
FIXKA-HSAWT (human) = FIXKA-HSAWT (human) (UniProt P02768)
Padua-HSAQMP (human) = molecular target: Padua-HSAQMP (human)

Substance | Kd (PaduaKR-HSAQMP (human)) [nM] | koff (PaduaKR-HSAQMP (human)) [s⁻¹] | Kd (PaduaKA-HSAQMP (human)) [nM] | koff (PaduaKA-HSAQMP (human)) [s⁻¹] | Kd (FIXKR-HSAWT (human)) [nM] | koff (FIXKR-HSAWT (human)) [s⁻¹] | Kd (FIXKA-HSAWT (human)) [nM] | koff (FIXKA-HSAWT (human)) [s⁻¹] | Kd (Padua-HSAQMP (human)) [nM] | koff (Padua-HSAQMP (human)) [s⁻¹]
soluble truncated His-tagged human neonatal Fc receptor (from UniProt P55899 24-297; P61769 21-119) | 0.3 | 7e-05 | 0.2 | 6e-05 | 190 | 0.00827 | 177 | 0.00769 | – | –
soluble truncated His-tagged mouse neonatal Fc receptor (from UniProt Q61559 22-297; P01887 21-119) | 54.9 | 0.00429 | 51.7 | 0.0028 | – | – | – | – | 44.6 | 0.00512
